Laboratory results published in patent US20050064507A1, “Determining kinase specificity” (priority 2003, published 2005).

Columns and labels:
[1] = molecular target: T1, PKC-theta (Homo sapiens, UniProt Q04759); experiment: In vitro kinase assay: peptide phosphorylation by PKC-theta; type: biochemical; conditions: for PKC theta phosphorylation: normalized to best substrate
T1 construct: His-tag; made in house; host or cells: baculovirus-infected Sf9 cells
Procedure, shortened: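 Recombinant human PKC-theta, expressed in baculovirus-infected Sf9 cells and purified on a nickel chelating column, was incubated with biotinylated peptides, 100 μM ATP containing ^32P-gamma ATP, and PKC buffer with CaCl2, MgCl2, phosphatidyl serine and PMA at 30° C. Reactions were stopped with ATP/EDTA. Peptides were captured on streptavidin-coated plates, and phosphorylation was normalized to the best substrate.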

[2] = molecular target: T2, PKC-alpha (Homo sapiens, UniProt P17252); experiment: In vitro kinase assay: peptide phosphorylation by PKC-alpha; type: biochemical; conditions: for PKC alpha phosphorylation: normalized to best substrate
T2 construct: purchased Calbiochem
Protocol: Catalytically active preparations of the kinases of interest were either purchased or prepared. Purchased and tested active kinase preparations including the following: PKC-alpha, PKC-delta, PKC-epsilon, PKC-zeta, PKC-mu, PKA, PKG from Calbiochem, ROK alpha/ROCK-II, active from Upstate Biotechnology, and AKT1 from Panvera.
The conditions of the kinase assay and the amount of active kinase used varied with the kinase and with the accuracy needed. For a typical experiment, 5-20 ng of kinase was used per well and each peptide pool was assayed in duplicate wells. Note that the absolute amount of kinase used was not usually a critical parameter, because the desired information related to specificity of the kinase not its absolute activity, and robustness of the assay depends on comparisons of the same amount of kinase on different peptides. The combination of kinase concentration and assay duration was modified to assure that the stoichiometry of peptide phosphorylation never exceeded 5%. The choice of kinase buffer depended on the kinase being analyzed. For studies of PKC, 100 mM HEPES, 0.05% Triton-X100, 1 mM CaCl2, 20 mM MgCl2, 0.2 mg/ml phosphatidyl serine (Avanti Polar Lipids), PMA 100 ng/ml was typically used. The lipid stock was prepared by transferring 3 mg phosphatidyl serine into iced mixture of 450 μl water plus 50 μl of 10% Triton-X100, sonicating 10 times on ice for 1 sec each.
The kinase reaction mixture was assembled by sequential addition to a tube held on ice of: 5 μl peptide (100 μM for final concentration of 10 μM), 15 μl of kinase (typically 5 ng/well, in appropriate kinase buffer), 30 μl of ATP (1 uCi/well of ^32P-gamma ATP in a stock of 167 μM cold ATP in the kinase buffer; for final concentration for 100 μM ATP). The mixture was rapidly warmed to desired reaction temperature (30° C. for PKC) and incubated for the desired duration (usually 10 minutes). The kinase assay was terminated by transfer to 4° C. water batch, and rapid addition of an equal volume (50 μl) of stop solution [0.1M ATP+0.1M EDTA in water, pH 8].
The peptides were then captured from the reaction mixture by transfer to a Reacti-Bind Streptavidin High Binding Capacity Coated Plates (HBC) (Pierce Biotechnology) as follows. The HBC plates were pre-rinsed three times with PBS/Tween PBS/Tween20 0.05% (PBS/Tween). Part of all of the reaction mixture was then transferred wells of a HBC plate pre-filled with 90 μl of phosphate-buffered saline (PBS); typically each aliquots of each phosphorylation reaction were transferred to duplicate HBC plates to assure accuracy by additional replication
For kinase assays done at the standard peptide concentration of 10 μM, the peptide concentration in the reaction mixture becomes 5 μM after addition of the stop solution; consequently 10 μl of the reaction (50 pMoles of peptide) was transferred to the HBC plate. More generally, the amount of reaction mixture transferred was estimated to be about 50 pMoles of peptide. […] The HBC plates were incubated for 0.5 to 1.5 hr at room temperature for complete binding of biotinylated peptides to plate-bound streptavidin. The HBC plates were then washed extensively with PBS/Tween. Five washes were done routinely and additional wash steps were added if the wash solution removed from the plate had measurable radioactivity as detected using a Geiger counter. This step is essential to obtaining a good the signal to noise ratio because the fraction of radioactivity incorporated in the peptides was a tiny fraction of the total in the reaction mixture. The wells were air-dried. A volume of 40-50 μl of microScint-20 (Packard Instruments) was added to each well. The plates were covered with stick-on film sheet. Radioactive emissions were measured in a TopCount NXT Microplate Scintillation and Luminescence Counter (Packard Instruments). Typically samples were counted for 5 minutes (or more) to improve the signal to noise ratio when counts were low. […]

T1 sequence (Q04759 whole entry): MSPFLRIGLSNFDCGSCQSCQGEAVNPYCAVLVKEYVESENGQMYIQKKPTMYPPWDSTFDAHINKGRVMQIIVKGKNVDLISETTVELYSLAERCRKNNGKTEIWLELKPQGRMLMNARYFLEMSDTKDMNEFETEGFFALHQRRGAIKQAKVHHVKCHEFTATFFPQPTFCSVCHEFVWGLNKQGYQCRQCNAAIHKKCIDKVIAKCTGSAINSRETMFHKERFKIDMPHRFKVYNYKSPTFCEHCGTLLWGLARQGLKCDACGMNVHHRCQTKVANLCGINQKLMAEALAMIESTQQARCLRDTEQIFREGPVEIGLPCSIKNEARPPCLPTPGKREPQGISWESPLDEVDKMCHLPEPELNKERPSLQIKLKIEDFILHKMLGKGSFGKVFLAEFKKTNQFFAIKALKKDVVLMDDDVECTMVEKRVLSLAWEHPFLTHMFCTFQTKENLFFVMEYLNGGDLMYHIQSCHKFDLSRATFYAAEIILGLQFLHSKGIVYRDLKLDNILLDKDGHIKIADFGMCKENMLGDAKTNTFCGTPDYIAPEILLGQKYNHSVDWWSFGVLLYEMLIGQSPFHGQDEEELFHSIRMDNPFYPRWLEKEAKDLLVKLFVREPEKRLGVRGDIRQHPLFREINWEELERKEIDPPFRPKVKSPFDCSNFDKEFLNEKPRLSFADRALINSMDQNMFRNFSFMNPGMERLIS

| Substance | PKC theta phosphorylation [1] [%] | PKC alpha phosphorylation [2] [%] | phosphorylation by PKC theta ([1]; peptide concentration 1 uM) | phosphorylation by PKC theta ([1]; peptide concentration 10 uM) | phosphorylation by PKC alpha ([2]; peptide concentration 1 uM) | phosphorylation by PKC alpha ([2]; peptide concentration 10 uM) | Peptide phosphorylation by PKC-theta ([1]; Table 8) |
| --- | --- | --- | --- | --- | --- | --- | --- |
| 83 (RKIPKRPGSVHRTPSRQ) [compound 83] | 92 | 41 |  |  |  |  |  |
| 119 (KKRFSFKKSFKLSGFSFKKN) [compound 119] |  |  | 69 | 28 | 94 | 98 |  |
| 89 (EYLERRASRRRAV) [compound 89] | 60 | 37 |  |  |  |  |  |
| 140 (TELEGGFSRQRKRKLSFRRR) [compound 140] |  |  | 25 | 35 | 12 | 15 |  |
| 132 (GFLNEPLSSKSQRRKSLKLK) [compound 132] |  |  | 34 | 40 | 24 | 30 |  |
| 104 (EKIKRSSLKKVDSLKK) [compound 104] | 25 | 34 |  |  |  |  |  |
| 116 (EEGTFRSSIRRLSTRRR) [compound 116] |  |  | 83 | 78 | 70 | 57 |  |
| 92 (DGQKRKKSLRKKLD) [compound 92] | 47 | 36 |  |  |  |  |  |
| 82 (PRLIRRGSKKRPAR) [compound 82] | 49 | 61 |  |  |  |  |  |
| 129 (VQRHRSMRKTFARYLSFRRD) [compound 129] |  |  | 48 | 25 | 58 | 37 |  |
| 139 (RPTPGDGEKRSRIKKSKKRK) [compound 139] |  |  | 31 | 17 | 39 | 44 |  |
| 133 (LEKRGMLGKRPRRKSSRRKK) [compound 133] |  |  | 46 | 53 | 17 | 16 |  |
| 167 (GLPAPGEDKSIYRRGSRRWR) [compound 167] |  |  | 12 | 14 | 27 | 7 |  |
| 127 (SQVQKQRSAGSFKRNSIKKI) [compound 127] |  |  | 45 | 58 | 40 | 39 |  |
| 106 (EILSRRPSYRKILND) [compound 106] | 19 | 23 |  |  |  |  |  |
| 154 (KKFFTQGWAGWRKKTSFRKP) [compound 154] |  |  | 34 | 21 | 16 | 12 |  |
| 166 (MAQIERGEARIQRRISIKKA) [compound 166] |  |  | 13 | 13 | 22 | 7 |  |
| 165 (TEEKSKKRKKKHRKNSRKHK) [compound 165] |  |  | 16 | 14 | 15 | 10 |  |
| 94 (KLAVGRHSFSRRSGV) [compound 94] | 86 | 34 |  |  |  |  |  |
| 78 (KFARKSTRRSIRLPE) [compound 78] | 47 | 69 |  |  |  |  |  |
| 76 (HVRRRRGTFKRSKLRARD) [compound 76] | 100 | 62 |  |  |  |  | 99 |

| Substance | PKC theta phosphorylation [1] [%] | PKC alpha phosphorylation [2] [%] | phosphorylation by PKC theta ([1]; peptide concentration 1 uM) | phosphorylation by PKC theta ([1]; peptide concentration 10 uM) | phosphorylation by PKC alpha ([2]; peptide concentration 1 uM) | phosphorylation by PKC alpha ([2]; peptide concentration 10 uM) | Peptide phosphorylation by PKC-theta ([1]; Table 8) |
| --- | --- | --- | --- | --- | --- | --- | --- |
| 99 (AGWRKKTSFRKPKED) [compound 99] | 25 | 37 |  |  |  |  |  |
| 110 (EGGDRRASGRRK) [compound 110] | 22 | 30 |  |  |  |  |  |
| 143 (VRYTPYTISPYNRKGSFRKQ) [compound 143] |  |  | 25 | 27 | 38 | 19 |  |
| 109 (KEVVRTDSLKGRRGR) [compound 109] | 9 | 21 |  |  |  |  |  |
| 93 (AARKKRISVKKKQEQ) [compound 93] | 40 | 34 |  |  |  |  |  |
| 112 (KRPGKKGSNKRPGKR) [compound 112] | 17 | 10 |  |  |  |  |  |
| 115 (NRKKKRTSFKRKA) [compound 115] |  |  | 89 | 77 | 55 | 56 |  |
| 137 (PSKSPSKKKKKFRTPSFLKK) [compound 137] |  |  | 40 | 19 | 34 | 38 |  |
| 135 (KKKFRTPSFLKKSKK) [compound 135] |  |  | 30 | 36 | 56 | 19 |  |
| 162 (KKKFSFKKPFKLSGLSFKRN) [compound 162] |  |  | 14 | 13 | 17 | 19 |  |
| 85 (RFARKGSLRQKNV) [compound 85] | 46 | 42 |  |  |  |  |  |
| 146 (QAQRQIKRGAPPRRSSIRNA) [compound 146] |  |  | 33 | 34 | 20 | 24 |  |
| 159 (LYARLARAYRRSQRASFKRA) [compound 159] |  |  | 21 | 17 | 21 | 19 |  |
| 134 (RSRSRSRSKSKDKRKSRKRS) [compound 134] |  |  | 36 | 16 | 54 | 39 |  |
| 122 (RAITSTLASSFKRRR) [compound 122] |  |  | 66 | 42 | 43 | 44 |  |
| 102 (AGSFKRNSIKKIV) [compound 102] | 28 | 35 |  |  |  |  |  |
| 118 (RPQNTLKASKKKKRASFKRK) [compound 118] |  |  | 67 | 52 | 46 | 60 |  |
| 144 (LSSMFGTLPRKSRKGSVRKQ) [compound 144] |  |  | 35 | 22 | 31 | 20 |  |
| 128 (QQVDRERPHVRRRRGTFKRS) [compound 128] |  |  | 41 | 59 | 25 | 33 |  |
| 130 (EYLERRASRRRAV) [compound 130] |  |  | 38 | 44 | 38 | 38 |  |
| 86 (RQRKRKLSFRRRTDKD) [compound 86] | 38 | 47 |  |  |  |  |  |
